For the test, the target named is MyD88, endogenous, in human cell lines (HeLa, U937, THP-1) (human, UniProt Q99836 1-296). Put plainly: cell-based or functional assay.

Numbered stars: 1 amine (or outer) side, 2 acyl side, 3 side chain; on linkers, the order of the positions; unused ones are H or OH. Bridge positions count the residues as written; N and C are the ends. Square brackets hold non-standard residues; d marks the D form. Ends that are not written are not given here. CO = O=C([*:1])[*:2]; Nlys = NCCCCNCC(=O)O

MyD88, endogenous, in human cell lines (HeLa, U937, THP-1), sequence (Q99836 whole entry): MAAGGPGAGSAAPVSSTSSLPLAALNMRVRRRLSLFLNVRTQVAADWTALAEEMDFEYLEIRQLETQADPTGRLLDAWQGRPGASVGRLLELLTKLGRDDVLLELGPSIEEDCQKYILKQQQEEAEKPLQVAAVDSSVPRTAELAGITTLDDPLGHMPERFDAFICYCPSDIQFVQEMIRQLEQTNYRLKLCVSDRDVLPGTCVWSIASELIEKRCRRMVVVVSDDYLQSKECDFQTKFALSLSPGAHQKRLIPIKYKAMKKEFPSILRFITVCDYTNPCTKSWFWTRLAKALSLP

RDVLPGT [MyD88 inhibitor linear peptide RDVLPGT]: the “Percent p65 nuclear translocation in HeLa cells, IL-1β” value (“Percent p65 nuclear translocation” for short) is 20%.

For the molecule PTDLVRG [scrambled version of the linear MyD88 inhibitor peptide (PTDLVRG)], the “Percent p65 nuclear translocation” value worked out at 91%.

B1: backbone cyclic peptide 4×4MyDI (Formula IV, m=4, n=4, Z=Trp) (peptide)
peptide: W[Nlys]RDVL[Nlys]GT
modifications: bridge 2-7 via CO; also: backbone cyclization: two amine-terminated 4-methylene arms on Gly2 and Gly7 joined by a urea bond
Regarding B1, the “Percent p65 nuclear translocation” value came out at 27%.

These data come from patent US20190185516A1 (YISSUM RESEARCH DEVELOPMENT COMPANY OF THE HEBREW …, published 2019).
